Data reported in PMC7962484 (RNA, 2021).

Experiments:
[1] = biological target: T1, Nop1^83–321 (S. cerevisiae, UniProt P15646 83-321); assay: SEC
T1 sequence (looked up): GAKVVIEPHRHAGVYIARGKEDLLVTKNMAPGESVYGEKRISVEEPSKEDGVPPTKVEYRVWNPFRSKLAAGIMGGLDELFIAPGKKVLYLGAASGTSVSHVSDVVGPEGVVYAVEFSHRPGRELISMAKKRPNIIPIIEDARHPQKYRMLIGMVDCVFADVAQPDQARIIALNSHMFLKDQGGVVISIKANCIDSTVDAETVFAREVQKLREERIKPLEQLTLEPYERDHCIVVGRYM

[2] = biological target: T2, Sc Nop1^83–327 (S. cerevisiae, UniProt P15646 83-327); assay: SEC
T2 sequence (looked up): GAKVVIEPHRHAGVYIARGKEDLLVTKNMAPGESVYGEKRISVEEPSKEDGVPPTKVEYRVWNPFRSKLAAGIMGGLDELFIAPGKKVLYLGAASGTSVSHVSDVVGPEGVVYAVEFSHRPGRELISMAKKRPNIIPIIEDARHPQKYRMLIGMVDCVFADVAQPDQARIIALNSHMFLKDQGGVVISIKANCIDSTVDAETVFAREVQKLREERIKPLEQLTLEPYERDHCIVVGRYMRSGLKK

B1: Sc Nop56^1–166 (domain or fragment, S. cerevisiae, UniProt Q12460 1-166, looked up)
chain: MAPIEYLLFEEPTGYAVFKVKLQQDDIGSRLKEVQEQINDFGAFTKLIELVSFAPFKGAAEALENANDISEGLVSESLKAILDLNLPKASSKKKNITLAISDKNLGPSIKEEFPYVDCISNELAQDLIRGVRLHGEKLFKGLQSGDLERAQLGLGHAYSRAKVKFS
binding result [1]: binds

B2: Nop56^1–166-Q35A/N39A (domain or fragment, S. cerevisiae, UniProt Q12460 1-166, looked up)
chain: MAPIEYLLFEEPTGYAVFKVKLQQDDIGSRLKEVAEQIADFGAFTKLIELVSFAPFKGAAEALENANDISEGLVSESLKAILDLNLPKASSKKKNITLAISDKNLGPSIKEEFPYVDCISNELAQDLIRGVRLHGEKLFKGLQSGDLERAQLGLGHAYSRAKVKFS
binding result [2]: binds

B3: Sc Nop56^1–166-L147W/E148F (domain or fragment, S. cerevisiae, UniProt Q12460 1-166, looked up)
chain: MAPIEYLLFEEPTGYAVFKVKLQQDDIGSRLKEVQEQINDFGAFTKLIELVSFAPFKGAAEALENANDISEGLVSESLKAILDLNLPKASSKKKNITLAISDKNLGPSIKEEFPYVDCISNELAQDLIRGVRLHGEKLFKGLQSGDWFRAQLGLGHAYSRAKVKFS
binding result [2]: binds
